Assay results from the supplement of paper PMC10126150.
± gives the standard deviation of the averaged measurements.

Tested on: ATP
Experiment: switch fluorescence ratio, 500 uM ATP over buffer (Cy3 cluster intensity, sum of 5 cycles each) (fold (ratio)); higher = stronger signal-on switching upon ATP binding; sequences stand for … in TCGTCGGCAGCGTCAGATGTGTATAAGAGACAGTTTTTTTTTTTTTTTTTTTTTTTTT…TC
Settings: aptamer strand: ATP DNA aptamer (quencher-CACCTGGGGGAGTATTGCGGAGGAAGG + anchor), 100 nM annealed; ATP concentration: 500 uM
Method in brief: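 Cy3-labelled switching-strand clusters on a modified Illumina MiSeq flow-cell were annealed to 100 nM quencher-labelled ATP aptamer and imaged first in selection buffer, then after 15 min with 500 uM ATP at 22 °C. NaOH stripping and re-annealing separated each of five buffer/ATP cycles, and clusters outside 100-1000 RFU were excluded. The fluorescence ratio sums target-cycle Cy3 intensity over buffer-cycle Cy3 intensity per cluster and averages it per switch-domain sequence.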
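Further: ATP exposure 15 min at 22 °C before imaging.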

Sequence | switch fluorescence ratio
TTCAGGCCGT | 1.02 ± 0.056
TCCCATAAGC | 1.099 ± 0.0051
TGTGTCGCGG | 1 ± 0.033
TTTAGAGCGT | 0.9933 ± 0.0013
CCAGGAGTGT | 1.08 ± 0.012
GGTTAACGTC | 1.03 ± 0.15
CGTGGGACTG | 1.02 ± 0.017
GGGGGTTACA | 1.005 ± 0.005
ACTTTTTGGG | 1.01 ± 0.065
TCTCGCTTGG | 1.02 ± 0.037
GTTTCGCGAC | 1.19 ± 0.026
TTTCGTGGTT | 0.937 ± 0.021
GCCACCGTTT | 1.06 ± 0.021
AGGTATGGTT | 0.984 ± 0.024
TGTCGGCTGG | 1.02 ± 0.052
TCATGGTGAT | 1.022 ± 0.0013
AATTTCATGT | 1.01 ± 0.012
AATGGGTGGG | 1 ± 0.062
TTAGAGGCAT | 1.05 ± 0.066
CCAAGATGTG | 0.997 ± 0.01
AATGGAGAAC | 1.01 ± 0.028
CTTGACAGAG | 0.9835 ± 0.0074
CGCTTTGACT | 1.08 ± 0.021
CTGGTGCGCG | 0.98 ± 0.032
TGAAGCTTGT | 1.004 ± 0.003

Sequence | switch fluorescence ratio
GGGCGGCCTA | 0.999 ± 0.021
TATTACTTAG | 1.062 ± 0.01
TTACGGGGAG | 1 ± 0.034
AAGTTTTTCC | 1.04 ± 0.021
TTAATCATAG | 1 ± 0.066
TCTCGTATAT | 1.05 ± 0.045
TTCAGGGGTC | 1.02 ± 0.018
CTTTCCCTTT | 1.01 ± 0.03
GTATTCTGTT | 0.997 ± 0.013
GTTGAGTTTT | 0.962 ± 0.03
AACGCTGAGG | 1.01 ± 0.009
AATCGCTTTT | 1 ± 0.053
CGCGCTTTCA | 1.02 ± 0.027
ATCTAGCGGA | 1.02 ± 0.022
GATAGGGTGC | 1.14 ± 0.044
GCATCAATGG | 1.06 ± 0.014
ACAGTTCGGG | 0.9653 ± 0.0051
CGGTGGTGTG | 0.963 ± 0.048
TTTGGAGTGC | 1 ± 0.05
GTTGTGCATA | 1.02 ± 0.03
CAAGGGGCAG | 1.009 ± 0.0057
TAAGGTCATA | 1.034 ± 0.0067
AAGTCTCGGG | 0.995 ± 0.0026
GACGTATCAA | 1.04 ± 0.025
ACCTGATTAA | 1.01 ± 0.018

Sequence | switch fluorescence ratio
GCGTATGAGA | 1.02 ± 0.013
TAAAATTTAT | 0.994 ± 0.028
ATGTGGACAA | 1.02 ± 0.021
TGACGCGGGG | 1.054 ± 0.0086
AGAAACCGTA | 1.1 ± 0.031
TTTCTGGAAT | 0.991 ± 0.0019
GGGGAATTGG | 0.994 ± 0.024
TCTTAGGGGT | 0.981 ± 0.021
CTGACGTGCT | 1.062 ± 0.004
GGTGGCGGGG | 0.987 ± 0.019
GTATTAGGTG | 1.03 ± 0.048
CATAAAGATG | 1.053 ± 0.01
CTCAGCCAGT | 1.29 ± 0.056
GCCGAAATGT | 1.06 ± 0.097
TTATAGGGG | 1 ± 0.039
AAGGTATTGA | 0.9782 ± 0.0046
AGTGGGCAGG | 1.04 ± 0.02
AGCAGGATGC | 0.987 ± 0.013
AAAGGAGGTT | 1 ± 0.028
AAAATGTGGT | 1 ± 0.015
TGTTAATCAC | 1.02 ± 0.034
ATCAGTTTGG | 1.01 ± 0.015
GTTTGGGTGC | 1.072 ± 0.0055
GGATGGGTGG | 0.99 ± 0.025
CAGTCAGCGG | 1.01 ± 0.02

Sequence | switch fluorescence ratio
GGTGAGGGCA | 0.99 ± 0.015
AGACTACTAC | 1.12 ± 0.025
GTAGCAGCAG | 1.17 ± 0.018
GAGGGCCGTG | 0.933 ± 0.043
AAGTGAATAT | 1.012 ± 0.0095
CTGTGCAACT | 1.0489 ± 0.00058
CGGGCAGCGG | 0.955 ± 0.06
TACGATATAC | 3.09 ± 0.34
TTTCGATGGG | 0.978 ± 0.015
GGGCTCAGAA | 1.03 ± 0.028
AACAACCATT | 1.05 ± 0.051
CTTAGAAGAT | 0.983 ± 0.044
GGGCCCTAAT | 0.982 ± 0.03
CCTGCTTTGG | 1.07 ± 0.083
TCGGGGTCGT | 0.9859 ± 0.0065
GCCAATGGTT | 1.08 ± 0.16
AGAGAAGAGA | 0.998 ± 0.023
TTGGTTATTT | 1 ± 0.045
TGCGAAGGAG | 0.9794 ± 0.0063
GGTGTTCTGT | 0.9665 ± 0.0089
ATGGGTGAAA | 0.9867 ± 0.0084
AAAGTAGACA | 1.005 ± 0.0063
TTTAGGAAGG | 1.017 ± 0.01
TACTTAGTTT | 1.01 ± 0.077
GAGAAAATAT | 1 ± 0.038

Sequence | switch fluorescence ratio
TTTGTCTGTG | 0.983 ± 0.03
CAGGCGGAGA | 0.969 ± 0.026
TTAACCAGTC | 1.04 ± 0.022
TTACTGGGGT | 1.02 ± 0.021
ATAAGTGATG | 0.995 ± 0.025
CCAGTATGTG | 1.04 ± 0.054
AGTACCATTG | 0.997 ± 0.015
GAGAGAATAG | 1.03 ± 0.034
TCTATGCGGG | 1.017 ± 0.0013
TTTTATGGCT | 0.982 ± 0.04
GCCATCATGC | 0.97 ± 0.0073
TATAGTACGG | 1.049 ± 0.0095
AAAAGGATCT | 1.02 ± 0.029
TGGGGGCCAA | 0.965 ± 0.012
GGTCATCTTG | 0.975 ± 0.02
GGAGGAAGTC | 0.975 ± 0.0024
GAGTGGGGGC | 1.01 ± 0.054
GACGATAGAT | 1.048 ± 0.00083
TTCGAGACTT | 1.05 ± 0.055
AGCAAACTTA | 1.14 ± 0.043
GATTTTCAGT | 0.975 ± 0.013
AGAAGGGCA | 0.983 ± 0.042
ACTCGTAACT | 0.9931 ± 0.0057
GCATCCTGGA | 0.969 ± 0.058
TGTAATTGGT | 1.003 ± 0.0089

Sequence | switch fluorescence ratio
GACTACTGCA | 1.13 ± 0.046
TTATATCGGG | 0.995 ± 0.016
GATGTAATTT | 1.03 ± 0.023
TTTTTGCATT | 1.038 ± 0.0028
GAATAAGATT | 1.01 ± 0.061
TCTTTTGCAT | 1.06 ± 0.019
CGGGTTAAGT | 1.03 ± 0.11
TAGGGGTA | 1.01 ± 0.021
TTAGGGTCGC | 0.993 ± 0.035
TAGCAGGGTG | 1.14 ± 0.019
TAAAAGACGG | 1.08 ± 0.056
GTTTAAGGCC | 1.01 ± 0.043
TCTATTATCA | 1.04 ± 0.024
CAGTGGGAGA | 1.025 ± 0.0088
GGGAGGAATG | 0.989 ± 0.021
TTGAGAATAC | 1.62 ± 0.68
GGGATTTTTT | 1.06 ± 0.16
TATCTTTTTT | 0.98 ± 0.024
TAGCCGGAGG | 0.986 ± 0.018
ATCAGAGTGC | 1.03 ± 0.06
TAATTAGGGA | 0.986 ± 0.044
ACGGGGTGTA | 0.986 ± 0.041
TTTCTGGGTT | 1.01 ± 0.023
GTTGGCGAGT | 1.01 ± 0.032
TGGTCCTAGG | 1 ± 0.016

Sequence | switch fluorescence ratio
ACTGGACACA | 1.22 ± 0.069
AAACGATATT | 1.015 ± 0.0026
ATCGGAGTAT | 0.996 ± 0.034
AAAAATCGAA | 1.02 ± 0.05
AGATAGGAG | 0.989 ± 0.027
ACTTTTTTAT | 1.01 ± 0.018
TCTCTGAATC | 1.24 ± 0.079
TGATAGTAT | 0.96 ± 0.037
GCTTGAGTTA | 0.9852 ± 0.0077
ATCGGGAATG | 1.019 ± 0.0018
TTTCTCGG | 1.07 ± 0.093
TCAGGGTTGC | 1.03 ± 0.025
TTGAGTCATG | 0.978 ± 0.047
ATTTCAATTA | 1.01 ± 0.065
ATAACTACTA | 1.06 ± 0.015
TAGGGCAACG | 1.04 ± 0.025
AAGTTGGGTA | 0.978 ± 0.024
TATACGGAAT | 1.16 ± 0.051
TCGCCTTTGG | 1.07 ± 0.072
CGAAATGGGT | 1.03 ± 0.025
GGGTCAGTGG | 0.976 ± 0.035
GGTGGTCCCT | 0.99 ± 0.04
GCTGCGGGCC | 1.02 ± 0.033
GGGAAATTGT | 0.997 ± 0.017
TTTTGGGTAA | 1.01 ± 0.0051

Sequence | switch fluorescence ratio
TGTTGCGGGC | 1 ± 0.12
GGTTTTTGCT | 0.9584 ± 0.0068
AAAAGGGCTT | 1 ± 0.012
TGTATAAAGT | 0.986 ± 0.02
GGGGGAAGGC | 1.15 ± 0.23
GGTGCAGGTG | 1.74 ± 0.59
AATAGGTTGT | 0.992 ± 0.015
GGGGTTTTG | 0.953 ± 0.0088
TATTTGATGT | 0.991 ± 0.029
CATTCTCAAT | 1.17 ± 0.056
TATAGGTTTT | 1 ± 0.081
CATTTATTGT | 0.992 ± 0.018
GGCGTTGGCT | 0.985 ± 0.011
CGCGGAGTAG | 0.9869 ± 0.0043
ACGTCGGGCT | 1.01 ± 0.021
TAATGGAAGG | 1 ± 0.024
TACTTATGGA | 0.984 ± 0.043
TTATTTGAGT | 1.06 ± 0.12
TAGGACTCTC | 1.01 ± 0.02
AGGGGGTTGT | 0.995 ± 0.026
TCATGGTTTA | 1.01 ± 0.016
CAGGTGTTTG | 1.39 ± 0.055
TAACCGGTGC | 1.065 ± 0.01
GAGGTAAGGG | 0.998 ± 0.029
GGGTTTACTA | 0.9552 ± 0.0018
